This is an account of results in paper doi:10.1101/595835, “An oligomeric state-dependent switch in FICD regulates AMPylation and deAMPylation of the chaperone BiP” (bioRxiv, 2019).

For orientation: Kd means the concentration at which binding is half-saturated.

Positions count from the first letter of the chain named. Names and notes keep the numbering of the source.

Series [1] deals with the molecule itself. Briefly: AUC; fluorescence-detected sedimentation velocity, Oregon Green-labelled FICD 1.6 µM to 31 pM, 20 °C, 50 mM HEPES-KOH pH 7.4, 150 mM KCl, 10 mM MgCl2, 1 mM CaCl2, 0.3 mM TCEP, 0.1% Tween-20, 0.15 mg/ml BSA; monomer-dimer fit (dimer to monomers).
Series [2] addresses T1, biotinylated AviTag-FICD(104-458)^H363A (human, UniProt Q9BVA6 104-458, H363A, biotin on the AviTag).
T1 construct: human FICD (HYPE), aa 104-458; Expression, purification and biotinylation of this construct are not described; also called N-terminally biotinylated FICD^H363A; UK 2422; not shown: AviTag, N-terminal, kept
T1 sequence (looked up): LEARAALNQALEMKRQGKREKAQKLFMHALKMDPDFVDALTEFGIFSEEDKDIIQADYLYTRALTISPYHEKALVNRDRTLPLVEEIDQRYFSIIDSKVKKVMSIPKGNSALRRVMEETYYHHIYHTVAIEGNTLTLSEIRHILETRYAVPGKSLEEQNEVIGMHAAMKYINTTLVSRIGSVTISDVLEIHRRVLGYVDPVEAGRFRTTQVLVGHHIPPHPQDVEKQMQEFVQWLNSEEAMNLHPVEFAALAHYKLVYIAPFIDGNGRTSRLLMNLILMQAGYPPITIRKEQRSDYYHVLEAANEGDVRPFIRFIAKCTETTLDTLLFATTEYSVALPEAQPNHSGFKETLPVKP
As to the kind of experiment: BLI; dimer dissociation: biotinylated AviTag-FICD(104-458)^H363A (3 nM) pre-incubated with FICD^H363A (300 nM), loaded on streptavidin biosensors; dissociation by infinite dilution into HKTx buffer ± nucleotide at 5 mM, 30 °C; mono-exponential fit. Conditions: both partners purified.

Series [3] deals with T2, biotinylated AviTag-haBiP^V461F(19-654), AMPylated (Chinese hamster, UniProt G3I8R9 19-654, V461F, AMP on Thr518 (AMPylation); biotin on the AviTag).
T2 construct: Chinese hamster BiP (haBiP), aa 19-654; also called BiP-AMP; AMPylated BiP; not shown: GST, N-terminal, cleaved; AviTag, N-terminal, kept
T2 sequence (G3I8R9 19-654 V461F): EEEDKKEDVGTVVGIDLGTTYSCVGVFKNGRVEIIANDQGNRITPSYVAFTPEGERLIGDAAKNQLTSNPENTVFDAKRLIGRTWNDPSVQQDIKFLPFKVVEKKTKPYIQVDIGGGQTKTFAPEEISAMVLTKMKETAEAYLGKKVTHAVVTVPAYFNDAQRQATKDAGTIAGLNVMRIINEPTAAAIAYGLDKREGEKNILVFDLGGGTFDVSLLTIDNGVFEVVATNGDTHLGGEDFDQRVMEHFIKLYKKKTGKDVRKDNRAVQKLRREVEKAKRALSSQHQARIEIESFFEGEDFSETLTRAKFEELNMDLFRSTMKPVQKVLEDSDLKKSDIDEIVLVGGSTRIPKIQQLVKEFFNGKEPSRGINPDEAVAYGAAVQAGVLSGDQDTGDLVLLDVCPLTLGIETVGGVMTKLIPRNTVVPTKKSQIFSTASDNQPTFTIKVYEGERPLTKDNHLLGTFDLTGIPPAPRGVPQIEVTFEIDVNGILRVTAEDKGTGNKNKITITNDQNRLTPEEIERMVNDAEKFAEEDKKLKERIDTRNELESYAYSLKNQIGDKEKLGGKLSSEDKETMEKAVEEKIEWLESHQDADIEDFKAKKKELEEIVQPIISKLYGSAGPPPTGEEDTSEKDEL
Briefly: BLI; biotinylated AMPylated or unmodified BiP immobilised on streptavidin biosensors; FICD His363Ala variants in solution at 250 nM; HKM plus 0.05% Triton X-100, 30 °C (Figure S2G). Conditions: both partners purified. Background: Biolayer interferometry detects binding as a change in optical thickness at a sensor tip.

The target of series [4] is T3, biotinylated AviTag-haBiP(28-635)^T229A-V461F (Chinese hamster, UniProt G3I8R9 28-635, T229A | V461F, biotin on the AviTag).
T3 construct: Chinese hamster BiP (haBiP), aa 28-635; the assay tells the nucleotide state; also called BiP^T229A-V461F:Apo; BiP:ATP; not shown: GST, N-terminal, cleaved; AviTag, N-terminal, kept
T3 sequence (G3I8R9 28-635 T229A/V461F): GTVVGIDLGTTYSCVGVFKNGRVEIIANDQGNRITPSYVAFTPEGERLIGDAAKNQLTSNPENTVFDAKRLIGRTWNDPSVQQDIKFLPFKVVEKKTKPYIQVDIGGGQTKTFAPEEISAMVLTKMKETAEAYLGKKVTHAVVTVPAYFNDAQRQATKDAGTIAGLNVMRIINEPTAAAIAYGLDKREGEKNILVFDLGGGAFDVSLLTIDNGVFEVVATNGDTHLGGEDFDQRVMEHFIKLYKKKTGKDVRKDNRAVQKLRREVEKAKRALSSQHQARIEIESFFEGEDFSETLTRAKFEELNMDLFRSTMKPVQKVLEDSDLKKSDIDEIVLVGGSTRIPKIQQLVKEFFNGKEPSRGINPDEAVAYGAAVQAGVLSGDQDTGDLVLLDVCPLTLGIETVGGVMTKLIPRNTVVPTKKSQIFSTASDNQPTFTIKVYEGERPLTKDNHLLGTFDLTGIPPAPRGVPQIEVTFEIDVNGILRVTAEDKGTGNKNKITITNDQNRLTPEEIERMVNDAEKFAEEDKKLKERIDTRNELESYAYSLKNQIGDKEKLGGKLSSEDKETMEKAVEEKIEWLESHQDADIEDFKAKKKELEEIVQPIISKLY
Briefly: BLI; biotinylated BiP^T229A-V461F(28-635) immobilised on streptavidin biosensors and pre-saturated with ATP (2 mM); FICD His363Ala variants at 250 nM, without or with nucleotide (ATP 8 mM, ADP 2 mM); HKM plus 0.05% Triton X-100, 30 °C. Conditions: both partners purified.

Series [5] concerns the molecule itself. As to the kind of experiment: SEC; analytical SEC, SEC-3 HPLC column, HKMC buffer (50 mM HEPES-KOH pH 7.4, 150 mM KCl, 10 mM MgCl2, 1 mM CaCl2), 25 °C; FICD at 20 µM, or 0.2-50 µM after 16 h at 25 °C (Figure S1D-E); approximate Kd of dimer to monomers from elution peak times. (SEC sorts molecules by how far they enter the pores of the column.)
Series [6] concerns the molecule itself. Briefly: crystal structure; sitting drop vapour diffusion, FICD at 9 mg/ml in 10 mM Tris-HCl pH 8.0, 150 mM NaCl, 1 mM TCEP, ± 10 mM MgATP.

B1: Oregon Green-labelled FICD^NC (domain or fragment, human)
chain: CLEARAALNQALEMKRQGKREKAQKLFMHALKMDPDFVDALTEFGIFSEEDKDIIQADYLYTRALTISPYHEKALVNRDRTLPLVEEIDQRYFSIIDSKVKKVMSIPKGNSALRRVMEETYYHHIYHTVAIEGNTLTLSEIRHILETRYAVPGKSLEEQNEVIGMHAAMKYINTTLVSRIGSVTISDVLEIHRRVLGYVDPVEAGRFRTTQVLVGHHIPPHPQDVEKQMQEFVQWLNSEEAMNLHPVEFAALAHYKLVYIHPFIDGNGRTSRLLMNLILMQAGYPPITIRKEQRSDYYHVLEAANEGDVRPFIRFIAKCTETTLDTLLFATTEYSVALPEAQP
modifications: Oregon Green 488 on the added N-terminal cysteine (labelling efficiency 74%)
notes: N-terminal cysteine added for site-specific labelling, told in words only; human FICD (HYPE), aa 104-445 (purified 'as described above'); also called UK 2339; wild-type (red); source: E. coli, purified (Ni-NTA, anion exchange, SEC), labelled with Oregon Green 488-iodoacetamide; not shown: His6, N-terminal, cleaved; Smt3, N-terminal, cleaved
As to B1, the Kd in series [1] was found to be 1.2 nM.

B2: FICD^H363A (aa 104-445) (domain or fragment, human, UniProt Q9BVA6 104-445, looked up)
chain: LEARAALNQALEMKRQGKREKAQKLFMHALKMDPDFVDALTEFGIFSEEDKDIIQADYLYTRALTISPYHEKALVNRDRTLPLVEEIDQRYFSIIDSKVKKVMSIPKGNSALRRVMEETYYHHIYHTVAIEGNTLTLSEIRHILETRYAVPGKSLEEQNEVIGMHAAMKYINTTLVSRIGSVTISDVLEIHRRVLGYVDPVEAGRFRTTQVLVGHHIPPHPQDVEKQMQEFVQWLNSEEAMNLHPVEFAALAHYKLVYIAPFIDGNGRTSRLLMNLILMQAGYPPITIRKEQRSDYYHVLEAANEGDVRPFIRFIAKCTETTLDTLLFATTEYSVALPEAQP
notes: human FICD (HYPE), aa 104-445; also called dFICD^H363A; source: E. coli T7 Express lysY/I^q, purified (Ni-NTA, on-column Ulp1 cleavage, anion exchange, SEC); not shown: His6, N-terminal, cleaved; Smt3, N-terminal, cleaved
For B2, the “fold increase in the dimer off rate with ATP (5 mM) against no nucleotide” value in series [2] was determined as 3 fold. Besides, the binding result in series [3] and in series [4] was “binds” in each case.

B3: wild-type FICD (aa 104-445) (domain or fragment, human, UniProt Q9BVA6 104-445, looked up)
chain: B2 chain with A260H
notes: human FICD (HYPE), aa 104-445; Dimer by SEC, AUC and crystal structure; also called HYPE; dFICD; source: E. coli T7 Express lysY/I^q, purified (Ni-NTA, on-column Ulp1 cleavage, anion exchange, SEC); not shown: His6, N-terminal, cleaved; Smt3, N-terminal, cleaved
In the case of B3, the binding result in series [5] was “binds”.

B4: FICD^E242A (aa 104-445) (domain or fragment, human, UniProt Q9BVA6 104-445, looked up)
chain: B2 chain with E139A, A260H
notes: human FICD (HYPE), aa 104-445; also called dimer relay mutant; source: E. coli T7 Express lysY/I^q, purified (Ni-NTA, on-column Ulp1 cleavage, anion exchange, SEC); not shown: His6, N-terminal, cleaved; Smt3, N-terminal, cleaved
Regarding B4, the Kd in series [5] was less than 0.4 µM.

B5: FICD^G299S (aa 104-445) (domain or fragment, human, UniProt Q9BVA6 104-445, looked up)
chain: B2 chain with G196S, A260H
notes: human FICD (HYPE), aa 104-445; Partially monomeric; also called Gly299Ser; source: E. coli T7 Express lysY/I^q, purified (Ni-NTA, on-column Ulp1 cleavage, anion exchange, SEC); not shown: His6, N-terminal, cleaved; Smt3, N-terminal, cleaved
For the molecule B5, the dissociation constant Kd in series [5] amounted to 9.5 µM.

B6: FICD^K256A (aa 104-445) (domain or fragment, human, UniProt Q9BVA6 104-445, looked up)
chain: B2 chain with K153A, A260H
notes: human FICD (HYPE), aa 104-445; also called dimeric dimer relay mutant FICD^K256A; source: E. coli T7 Express lysY/I^q, purified (Ni-NTA, on-column Ulp1 cleavage, anion exchange, SEC); not shown: His6, N-terminal, cleaved; Smt3, N-terminal, cleaved
On to B6, for which, in series [6], the binding result is “binds”.

B7: FICD^K256S (aa 104-445) (domain or fragment, human, UniProt Q9BVA6 104-445, looked up)
chain: B2 chain with K153S, A260H
notes: human FICD (HYPE), aa 104-445; also called Lys256Ser; dimer relay mutant; source: E. coli T7 Express lysY/I^q, purified (Ni-NTA, on-column Ulp1 cleavage, anion exchange, SEC); not shown: His6, N-terminal, cleaved; Smt3, N-terminal, cleaved
B7: the Kd in series [5] was less than 0.4 µM.

B8: FICD^C421S (aa 104-445) (domain or fragment, human, UniProt Q9BVA6 104-445, looked up)
chain: B2 chain with A260H, C318S
notes: human FICD (HYPE), aa 104-445; also called cysteine-free FICD^C421S; UK 2161; source: E. coli, purified by the protocol of the disulphide-linked dimers (Ni-NTA, oxidised glutathione, anion exchange, SEC); not shown: His6, N-terminal, cleaved; Smt3, N-terminal, cleaved
For the molecule B8, the binding result in series [5] is “binds”.

B9: non-oxidised FICD^A252C-C421S (aa 104-445) (domain or fragment, human, UniProt Q9BVA6 104-445, looked up)
chain: B2 chain with A149C, A260H, C318S
notes: human FICD (HYPE), aa 104-445; also called non-disulphide-bonded FICD^A252C-C421S; UK 2219; source: E. coli, purified; separate preparation not subjected to oxidation with glutathione; not shown: His6, N-terminal, cleaved; Smt3, N-terminal, cleaved
As for B9, the binding result in series [5] was “binds”.

B10: FICD^L258D-H363A (aa 104-445) (domain or fragment, human, UniProt Q9BVA6 104-445, looked up)
chain: B2 chain with L155D
notes: human FICD (HYPE), aa 104-445; also called mFICD^H363A; source: E. coli T7 Express lysY/I^q, purified (Ni-NTA, on-column Ulp1 cleavage, anion exchange, SEC); not shown: His6, N-terminal, cleaved; Smt3, N-terminal, cleaved
For the molecule B10, the binding result in series [3] and in series [4] was “binds” throughout.
